Square brackets hold non-standard residues; d marks the D form. Ends that are not written are not given here. pS = N[C@@H](COP(=O)(O)O)C(=O)O
Target: T1, full-length mouse wild-type Keap1-6xHis (Kelch-like ECH-associated protein 1) (mouse, UniProt Q9Z2X8 1-624)
T1 construct: Keap1, mouse, full-length protein Met1-Cys624; also called full-length Keap1; Keap1 homodimer; not shown: 6xHis, C-terminal, kept
Assay: NMR titration; competition: preformed complex of 0.05 mM 13C/15N-Neh2 and 0.1 mM Keap1 (1:2) titrated with p62-KIR peptide (phosphorylated 0.25-5 mM, non-phosphorylated 1.0 and 5 mM); 20 mM Tris-HCl pH 8.0, 100 mM NaCl, 4 mM TCEP; read-out is recovery of Neh2 signals
Conditions: both partners purified

T1 sequence (Q9Z2X8 whole entry): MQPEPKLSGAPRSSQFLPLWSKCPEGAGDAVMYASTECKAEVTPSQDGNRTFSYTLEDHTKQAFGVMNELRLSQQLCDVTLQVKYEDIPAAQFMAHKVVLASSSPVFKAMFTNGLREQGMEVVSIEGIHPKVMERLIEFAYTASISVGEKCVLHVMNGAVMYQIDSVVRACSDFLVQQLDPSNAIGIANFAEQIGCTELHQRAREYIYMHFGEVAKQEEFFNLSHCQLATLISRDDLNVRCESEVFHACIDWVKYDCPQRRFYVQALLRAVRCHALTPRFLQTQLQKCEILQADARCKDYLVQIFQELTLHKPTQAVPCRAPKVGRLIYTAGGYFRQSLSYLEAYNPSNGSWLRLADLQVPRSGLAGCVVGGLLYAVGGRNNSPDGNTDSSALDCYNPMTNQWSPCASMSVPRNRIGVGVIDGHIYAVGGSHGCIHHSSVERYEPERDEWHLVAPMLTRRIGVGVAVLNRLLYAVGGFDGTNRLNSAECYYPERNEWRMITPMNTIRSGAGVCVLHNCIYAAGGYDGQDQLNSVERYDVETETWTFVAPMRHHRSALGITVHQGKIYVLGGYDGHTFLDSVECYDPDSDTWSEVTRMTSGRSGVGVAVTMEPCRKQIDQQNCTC

binding result: binds
B1: phosphorylated p62-KIR peptide (peptide)
peptide: KEVDP[pS]TGELQSLQ
notes: also called P-p62-KIR; p62-pKIR peptide; source: bought: Toray Research Center
